Reference: article PMC5799255, “Histone H5 is a potent Antimicrobial Agent and a template for novel Antimicrobial Peptides” (Scientific Reports, 2018)

Legend:
Format in all cases: cell-based
[1] = system: Gram-positive and Gram-negative planktonic bacteria; experiment: Broth microdilution assay, summary over the planktonic bacteria tested; settings: bactericidal when MBC ≤4 times the MIC
Experimental: (§1) Antimicrobial activity of histone H5 against a variety of Gram-positive and Gram-negative planktonic bacteria was evaluated using a broth microdilution assay. The average minimum inhibitory concentration (MIC) and minimum bactericidal concentration (MBC) values (mean ± SD, n = 3) for six Gram-positive and four Gram-negative bacterial species are shown in Table 2. […] E. faecalis was the least susceptible to histone H5 inhibition, requiring over 32 µg/mL for complete bacterial growth inhibition which was the highest histone H5 concentration tested.
The bacterial strains tested in this study were Gram-positive bacteria (Bacillus cereus (ATCC 11778), methicillin-sensitive Staphylococcus aureus (ATCC 6538), methicillin-resistant Staphylococcus aureus (ATCC 29247), Listeria monocytogenes (ATCC 19112), Enterococcus faecalis (clinical isolate) and vancomycin-resistant Enterococcus (ATCC 51299)) and Gram-negative bacteria Escherichia coli K12 (ATCC 29425), Escherichia coli (O157:H7), Pseudomonas aeruginosa (ATCC 15442) and Salmonella typhimurium (ATCC 1535)). Bacterial colonies from glycerol stocks were plated on LB agar plates (BHI agar plates for L. monocytogenes) and incubated overnight at 37 °C. […]
The protocol for this step of the project was based on established methods22. […] The microplate was incubated in the EON microplate reader overnight at 206 oscillations/min and at 37°C. […]

[2] = system: Enterococcus faecalis (clinical isolate); experiment: Broth microdilution assay (MIC/MBC), planktonic bacteria; settings: mean ± SD, n = 3
Experimental: as §1
(§2) The bacterial strains tested in this study were Gram-positive bacteria (Bacillus cereus (ATCC 11778), methicillin-sensitive Staphylococcus aureus (ATCC 6538), methicillin-resistant Staphylococcus aureus (ATCC 29247), Listeria monocytogenes (ATCC 19112), Enterococcus faecalis (clinical isolate) and vancomycin-resistant Enterococcus (ATCC 51299)) and Gram-negative bacteria Escherichia coli K12 (ATCC 29425), Escherichia coli (O157:H7), Pseudomonas aeruginosa (ATCC 15442) and Salmonella typhimurium (ATCC 1535)). Bacterial colonies from glycerol stocks were plated on LB agar plates (BHI agar plates for L. monocytogenes) and incubated overnight at 37 °C. Single colonies from these plates were grown in 3 mL of LB broth (BHI broth for L. monocytogenes) overnight at 37 °C and shaken at 250 rpm. […] The bacterial suspension was pelleted at 3,000 × g, 4 °C for 10 minutes and washed with PBS (twice), and then adjusted to 10^5–10^6 CFUs/mL in PBS.
(§3) Supplementary Information
(§4) Broth microdilution assay
(§5) The protocol for this step of the project was based on established methods22. Histone H5 or the peptides were dissolved in sterile water, pH 7.4, serially two-fold diluted and aliquoted in a 1:1 (v/v) ratio with bacteria. Kanamycin or ampicillin served as a positive control for inhibition, and sterile water (pH 7.4) as a negative control for inhibition. The tubes were then incubated for 3 hours at 37°C an d shaken at 200 rpm. Next, 100 µL of each tube and 100µL of LB broth (BHI broth for L. monocytogenes) was plated in wells of a 96-well microplate. The microplate was incubated in the EON microplate reader overnight at 206 oscillations/min and at 37°C. During this period, the EON microplate spectrophotometer and Gen5 data analysis software (BioTek, Winooski, VT, USA) were used to monitor the growth of bacteria by measuring the optical density at 600 nm every 30 minutes for 18 hours. The lowest protein concentration without visible bacterial growth was designated as the minimum inhibitory concentration (MIC). Bacteria (10 µL) from the wells at MIC, MIC x 2 and MIC x 3 concentrations of H5 were plated on LB agar (BHI agar for L. monocytogenes) and incubated at 37°C for 18 hours. The lowest concentration of histone H5 without a single colony was designated as the minimum bactericidal concentration (MBC). […]

[3] = system: Salmonella typhimurium (ATCC 1535); experiment: as above
Experimental: as §1, §2, §3, §4, §5

[4] = system: Escherichia coli K12 (ATCC 29425); experiment: as above
Experimental: as §1, §2, §3, §4, §5

[5] = system: vancomycin-resistant Enterococcus (ATCC 51299); experiment: as above; settings: mean ± SD, n = 3
Experimental: as §1, §2, §3, §4, §5

[6] = system: Bacillus cereus (ATCC 11778); experiment: as above; settings: mean ± SD, n = 3
Experimental: as §1, §2, §3, §4, §5

[7] = system: methicillin-resistant Staphylococcus aureus (ATCC 29247); experiment: as above; settings: mean ± SD, n = 3
Experimental: as §1, §2, §3, §4, §5

[8] = system: methicillin-sensitive Staphylococcus aureus (ATCC 6538); experiment: as above; settings: mean ± SD, n = 3
Experimental: as §1, §2, §3, §4, §5

[9] = plated on LB agar, 37 °C 18 h, lowest concentration without a single colony
[10] = broth microdilution, 3 h at 37 °C, then OD600 growth 18 h in LB broth, mean ± SD, n = 3
[11] = plated on LB agar, 37 °C 18 h, lowest concentration without a single colony, mean ± SD, n = 3
[12] = value in the figure, representative of three independent trials, each in triplicate
[13] = broth microdilution, 3 h at 37 °C, then OD600 growth 18 h in LB broth

B1: histone H5: erythrocyte-specific linker histone purified from chicken erythrocytes, 190 amino acids (protein, UniProt P02259 2-190, looked up)
Histone H5: TESLVLSPAPAKPKRVKASRRSASHPTYSEMIAAAIRAEKSRGGSSRQSIQKYIKSHYKVGHNADLQIKLSIRRLLAAGVLKQTKGVGASGSFRLAKSDKAKRSPGKKKKAVRRSTSPKKAARPRKARSPAKKPKATARKARKKSRASPKKAKKPKTVKAKSRKASKAKKVKRSKPRAKSGARKSPKKK
Question: Which MBC/MIC [1] does the source give for B1 here?
Answer: The MBC/MIC was ≤ 4.

Question: And the MIC ([2]; broth microdilution, 3 h at 37 °C, then OD600 growth 18 h in LB broth, highest concentration tested 32 µg/mL)?
Answer: The MIC was >32 µg/mL.

Question: What about the MBC [2, 9] of the same molecule?
Answer: The MBC was >32 µg/mL.

Question: And the MIC [3, 10]?
Answer: Its MIC is 1.9 ± 1.8 µg/mL.

Question: What about the MBC [3, 11] of the same molecule?
Answer: Its MBC is 1.9 ± 1.8 µg/mL.

Question: And the MIC [3, 12]?
Answer: Its MIC is 4 µg/mL.

Question: What about the MIC [4, 10] of the same molecule?
Answer: Its MIC is 4.9 ± 1.5 µg/mL.

Question: What about the MBC [4, 11] of the same molecule?
Answer: Its MBC is 6.7 ± 2.3 µg/mL.

Question: What about the MIC [4, 12] of the same molecule?
Answer: The MIC was 6.7 µg/mL.

Question: What about the MIC [5, 13] of the same molecule?
Answer: Its MIC is 4 ± 1.2 µg/mL.

Question: What about the MBC [5, 9] of the same molecule?
Answer: Its MBC is 4.4 ± 1.9 µg/mL.

Question: And the MIC ([6]; broth microdilution, 3 h at 37 °C with bacteria 1:1 (v/v), then OD600 growth 18 h in LB broth, lowest concentration without visible growth)?
Answer: Its MIC is 3.8 ± 1.7 µg/mL.

Question: What about the MBC ([6]; wells at MIC, MIC x 2, MIC x 3 plated on LB agar, 37 °C 18 h, lowest concentration without a single colony) of the same molecule?
Answer: The MBC was 3.8 ± 1.7 µg/mL.

Question: And the MIC [7, 13]?
Answer: Its MIC is 2.4 ± 0.8 µg/mL.

Question: What about the MBC [7, 9] of the same molecule?
Answer: The MBC was 2.7 ± 1.2 µg/mL.

Question: And the MIC [8, 13]?
Answer: The MIC was 3.8 ± 0.4 µg/mL.

Question: What about the MBC [8, 9] of the same molecule?
Answer: The MBC was 4 ± 0 µg/mL.
